Measurements taken from patent US6506587B2, “TRF 1 binding protein, methods of use thereof” (The Rockefeller University, priority 1998, dated 2003).
Substitutions are numbered along the chain they refer to. “Also recorded” adds a separate entry of the source.

Columns and labels:
[1] = molecular target: T1, tankyrase (Homo sapiens, UniProt O95271); experiment: PARP assay with baculovirus-derived tankyrase and [32P]NAD+; format: biochemical; conditions: 1 mM 3AB; 4 μg tankyrase, without or with 4 μg TRF1; 1.3 μM [32P]NAD+
T1 construct: [His]6 (pFastBac HTb) (N); made in house; host or cells: SF21 insect cells (baculovirus)
T1 sequence (O95271 1-1327): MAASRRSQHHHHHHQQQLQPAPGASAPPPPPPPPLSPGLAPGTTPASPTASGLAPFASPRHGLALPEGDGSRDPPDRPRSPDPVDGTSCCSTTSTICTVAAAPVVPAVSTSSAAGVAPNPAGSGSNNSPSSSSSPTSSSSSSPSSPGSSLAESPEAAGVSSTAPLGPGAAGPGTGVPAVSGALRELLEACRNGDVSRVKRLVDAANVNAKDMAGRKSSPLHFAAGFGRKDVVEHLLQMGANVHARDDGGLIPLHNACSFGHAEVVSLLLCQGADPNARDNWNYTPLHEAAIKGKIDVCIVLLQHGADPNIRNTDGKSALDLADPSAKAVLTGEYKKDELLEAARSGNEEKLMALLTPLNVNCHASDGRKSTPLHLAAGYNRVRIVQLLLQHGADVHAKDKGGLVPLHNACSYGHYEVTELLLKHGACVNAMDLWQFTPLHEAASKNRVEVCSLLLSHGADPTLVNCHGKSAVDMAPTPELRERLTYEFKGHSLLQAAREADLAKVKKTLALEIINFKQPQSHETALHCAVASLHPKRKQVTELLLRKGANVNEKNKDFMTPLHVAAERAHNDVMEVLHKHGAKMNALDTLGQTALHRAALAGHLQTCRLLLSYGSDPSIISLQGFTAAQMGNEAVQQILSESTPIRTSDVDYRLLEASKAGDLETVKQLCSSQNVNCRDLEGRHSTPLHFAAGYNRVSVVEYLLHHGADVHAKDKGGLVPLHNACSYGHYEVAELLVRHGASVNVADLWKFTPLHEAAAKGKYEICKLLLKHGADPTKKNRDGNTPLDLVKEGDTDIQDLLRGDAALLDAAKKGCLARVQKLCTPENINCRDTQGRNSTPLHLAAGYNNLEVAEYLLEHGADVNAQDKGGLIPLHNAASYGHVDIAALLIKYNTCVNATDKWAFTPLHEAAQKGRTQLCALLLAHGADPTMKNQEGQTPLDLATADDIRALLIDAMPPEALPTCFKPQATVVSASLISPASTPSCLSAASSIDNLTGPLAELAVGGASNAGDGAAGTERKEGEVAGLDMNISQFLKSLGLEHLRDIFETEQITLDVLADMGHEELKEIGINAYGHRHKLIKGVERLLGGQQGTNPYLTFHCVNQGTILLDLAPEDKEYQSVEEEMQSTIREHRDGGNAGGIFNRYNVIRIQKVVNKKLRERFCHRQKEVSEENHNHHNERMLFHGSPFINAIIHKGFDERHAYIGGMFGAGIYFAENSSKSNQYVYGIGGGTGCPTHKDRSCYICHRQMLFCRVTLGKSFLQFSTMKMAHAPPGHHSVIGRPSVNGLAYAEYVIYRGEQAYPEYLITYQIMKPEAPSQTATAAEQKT
Procedure: Reactions containing 4 μg tankyrase (+), without (−) or with (+) 4 μg TRF 1, and 1.3 μM [^32P]NAD^+ were incubated without (−) or with (+) 1 mM 3AB and processed as in FIG. 9A.
PARP assays were performed with baculovirus-derived tankyrase essentially as described in [Simonin et al. 268:8529 (1993)] but without addition of DNA. To make baculovirus-derived protein, an N-terminally [His]6-tagged fusion protein of human tankyrase was generated in the expression vector pFastBac HTb (Gibco BRL, Grand Island) and used to generate a recombinant plasmid in DH10Bac E. coli. The recombinant DNA was used to transfect SF21 insect cells and recombinant virus was isolated and amplified. Protein was purified as described for baculovirus-derived TRF1 [Bianchi et al., EMBO J. 16:1785 (1997)]. Samples containing tankyrase (0-4 μg) and TRF1 (0-4 μg) [Bianchi et al., EMBO J. 16:1785 (1997)] were incubated for 30 minutes at 25° C. in 0.1 ml of assay buffer containing 50 mM Tris-HCl (pH 8.0), 4 mM Mg Cl2, 0.2 mM dithiothreitol (DTT), 1.3 μM [^32P]NAD+ (4 μCi) and varying concentrations of unlabeled NAD+ (0-1 mM). Reactions were stopped by the addition of 20% trichloroacetic acid (TCA). Acid-insoluble proteins were collected by centrifugation, rinsed in 5% TCA, suspended in Laemmli loading buffer, and fractionated on SDS-PAGE. Proteins were visualized by Coomassie-Blue stain and autoradiography. […]

[2] = tested on: TRF1; experiment: Gel-shift assay for TTAGGG repeat binding activity of TRF1; format: biochemical
Procedure: The Gel-shift assay for the TTAGGG repeat binding activity of TRF1 used a duplex [TTAGGG]12 DNA as a probe. Binding reactions contained the components indicated above the lanes. Tankyrase was varied from 2.5 to 200 ng per 20 μl incubation in three-fold dilution steps (triangles). TRF1 was either present at 13 ng (+) or varied from 120 to 13 ng in three-fold dilution steps (triangle). NAD^+ was at 0 (−) or 0.2 mM (+). The asterisks indicate the position of TRF1-containing complexes as determined by antibody super-shift experiments.
Gel-shift assays were performed using an end-labeled 142 bp Hindlll-Asp718 fragment from plasmid pTH12 [Z. Zhong, et al, Mol. Cell. Biol. 12:4834 (1992)] containing 12 tandem TTAGGG repeats. Baculovirus-derived TRF1 (13 to 120 ng) [Bianchi et al. EMBO J. 16:1785 (1997)] was incubated for 30 minutes at room temperature in a 20 μl reaction containing 20 mM Hepes-KOH (pH 7.9), 100 mM KCL, 0.5 mM DTT, 5% glycerol, 0.1% NP40, 100 ng sheared E. coli DNA, 100 ng β-casein, and 1 ng of labeled probe. In some cases, reactions were supplemented with NAD^+ (0.2 mM) and baculovirus-derived human tankyrase (2.5 to 200 ng). Samples were fractionated on a 0.7% agarose gel run in 0.1× TBE (8.9 mM Tris-base, 8.9 mM Boric acid, and 0.2 mM EDTA) at 130 volts for 1 hour at room temperature. Gels were dried onto Whatman DE81 paper and autoradiographed.

[3] = molecular target: T2, TRF1 (Homo sapiens, UniProt P54274); experiment: Yeast two-hybrid analysis, β-galactosidase assay; format: cell-based; conditions: with amino-terminal acidic domain of TRF1 (LexAd68-C); 12.0 units with GAD lacking tankyrase sequences; average of three transformations
T2 construct: expressed in transfected cells; host or cells: yeast strain L40
Procedure: (§1) Proteins were immunoprecipitated with an unrelated rabbit serum as a control (C) (lanes 1 and 4), anti-tankyrase antibodies (tankyrase) (lanes 2 and 6) or anti-TRF1 antibody 371 (TRF1) (lanes 3 and 5). Samples were processed, suspended in Laemmli buffer and divided in half. One set was not heated (left panel) and the other was heated at 100° C. for 5 min (right panel). Proteins were fractionated on 10% SDS-PAGE, transferred to nitrocellulose and probed with anti-TRF1 antibody 371 (left panel) or anti-tankyrase antibodies (right panel). […] The values represent an average of three independent transformations. Values<0.01 are indicated by 0.
(§2) TR1L-4 and TR1L-12 were isolated from a human liver two-hybrid cDNA library (Clontech) created in pGad10. The library was screened with human full length TRF1 cDNA fused to LexA (LexA-TRF1) [Bianchi et al., EMBO J., 16:1785-1794 (1997)] in the yeast strain L40 as described [Hollenberg et al., Mol. Cell Biol., 15:3813-3822 (1995)]. Two-hybrid analysis was performed as described by Bianchi et al. [EMBO J., 16:1785-1794 (1997)]. β-galactosidase assays for the two-hybrid analysis was performed as described by Bianchi et al. [EMBO J., 16:1785-1794 (1997)].
T2 sequence (P54274 1-67): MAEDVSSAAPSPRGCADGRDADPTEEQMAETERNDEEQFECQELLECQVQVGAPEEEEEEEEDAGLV

[4] = molecular target: T3, TRF1 (Homo sapiens, UniProt P54274); experiment: Yeast two-hybrid analysis, β-galactosidase assay; format: cell-based; conditions: ΔN66-LexA (deletion of the acidic domain of TRF1)
T3 construct: expressed in transfected cells; host or cells: yeast strain L40
T3 sequence (P54274 67-439): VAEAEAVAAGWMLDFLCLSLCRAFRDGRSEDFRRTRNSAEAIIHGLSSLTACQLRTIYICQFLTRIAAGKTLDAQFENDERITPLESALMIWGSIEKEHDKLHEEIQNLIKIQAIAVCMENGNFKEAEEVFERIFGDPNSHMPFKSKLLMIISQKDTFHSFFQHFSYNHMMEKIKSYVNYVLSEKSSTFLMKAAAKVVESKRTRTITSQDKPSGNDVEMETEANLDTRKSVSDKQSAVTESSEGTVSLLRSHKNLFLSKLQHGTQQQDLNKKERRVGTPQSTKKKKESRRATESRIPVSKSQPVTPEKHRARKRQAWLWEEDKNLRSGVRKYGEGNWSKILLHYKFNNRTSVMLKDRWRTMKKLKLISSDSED
Procedure: as §1, §2

With NC(=O)c1cccc(N)c1 [3AB, 3-aminobenzamide] the “Modification (ADP-ribosylation) of TRF1 and tankyrase by tankyrase” value [1] was “strongly inhibited; also recorded: inhibited”.

B1: tankyrase: human TRF1-binding protein of SEQ ID NO:2 with ANK repeats, SAM motif and PARP-related domain; recombinant, baculovirus-derived (protein)
chain: T1 sequence (O95271 1-1327) with R802K
With B1 the “TRF1 DNA binding activity on [TTAGGG]12 probe” value (from here on “TRF1 DNA binding activity”) ([2]; NAD+ included (0.2 mM), tankyrase 2.5 to 200 ng per 20 μl, TRF1 13 ng) was “drastic reduction”, the “TRF1 DNA binding activity” value ([2]; NAD+ included (0.2 mM), tankyrase 2.5 to 200 ng per 20 μl, TRF1 13 ng, listed as Tankyrase) was “inhibition” and the “TRF1 DNA binding activity” value ([2]; absence of NAD+, effect also seen with total insect cell protein (non-specific)) was “slight stimulation”.

B2: GAD-tankyrase: 10-ANK repeat domain of TR1L-12 (ANK repeats 9-19) fused to the GAL4 activation domain (protein)
chain: FTPLHEAASKNRVEVCSLLLSHGADPTLVNCHGKSAVDMAPTPELRERLTYEFKGHSLLQAAREADLAKVKKTLALEIINFKQPQSHETALHCAVASLHPKRKQVTELLLRKGANVNEKNKDFMTPLHVAAERAHNDVMEVLHKHGAKMNALDTLGQTALHRAALAGHLQTCRLLLSYGSDPSIISLQGFTAAQMGNEAVQQILSESTPIRTSDVDYRLLEASKAGDLETVKQLCSSQNVNCRDLEGRHSTPLHFAAGYNRVSVVEYLLHHGADVHAKDKGGLVPLHNACSYGHYEVAELLVRHGASVNVADLWKFTPLHEAAAKGKYEICKLLLKHGADPTKKNRDGNTPLDLVKEGDTDI
modifications: left off: large carriers
With B2 the “β-galactosidase levels (lacZ reporter activation)” value [3] was 50.4 units and the “Interaction with TRF1 lacking the acidic domain” value [4] was “abolished”.
